Data on 2 molecules can be found in paper PMC3823233 (Nature structural & molecular biology, 2013).

The target in assay [1] is BG505 SOSIP.664 gp140 trimer (HIV-1 clade A, isolate BG505 …, stabilised, glycosylated).
The target of a further assay is gp120 from strain JRFL (HIV-1 clade B, isolate JR-FL, UniProt Q75760, strain). The assay is described as follows: ELISA.
Another assay deals with gp120 from strain JRCSF (HIV-1 (isolate JRCSF), UniProt P20871). The assay is described as follows: ELISA.

B1: PGT 135 Fab (Fab, V domains shown)
VH: QLQMQESGPGLVKPSETLSLSCTVSGDSIRGGEWGDKDYHWGWVRHSAGKGLEWIGSIHWRGTTHYKESLRRRVSMSIDTSRNWFSLRLASVTAADTAVYFCARHRHHDVFMLVPIAGWFDVWGPGVQVTVSS
VL: EIVMTQSPDTLSVSPGETVTLSCRASQNINKNLAWYQYKPGQSPRLVIFETYSKIAAFPARFVASGSGTEFTLTINNMQSEDVAVYYCQQYEEWPRTFGQGTKVDIK
On to B1, for which, in assay [1], the “stoichiometry N” value amounted to 3 Fabs per trimer.

B2: PGT 135 IgG (antibody, V domains shown)
VH: QLQMQESGPGLVKPSETLSLSCTVSGDSIRGGEWGDKDYHWGWVRHSAGKGLEWIGSIHWRGTTHYKESLRRRVSMSIDTSRNWFSLRLASVTAADTAVYFCARHRHHDVFMLVPIAGWFDVWGPGVQVTVSS
VL: EIVMTQSPDTLSVSPGETVTLSCRASQNINKNLAWYQYKPGQSPRLVIFETYSKIAAFPARFVASGSGTEFTLTINNMQSEDVAVYYCQQYEEWPRTFGQGTKVDIK
Turning to B2, the binding result with gp120 from strain JRFL and with gp120 from strain JRCSF was “binds” throughout.
